Data published in PMC3975686 (Journal of proteome research, 2013).

T1: human RhoGDI (human, UniProt P52565 1-204)
T1 sequence (looked up): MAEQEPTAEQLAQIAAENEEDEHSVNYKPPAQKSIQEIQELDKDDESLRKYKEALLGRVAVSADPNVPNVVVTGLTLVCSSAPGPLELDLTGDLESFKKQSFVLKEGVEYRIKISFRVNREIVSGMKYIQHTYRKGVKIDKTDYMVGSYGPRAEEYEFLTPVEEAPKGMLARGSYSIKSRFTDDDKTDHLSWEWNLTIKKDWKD


Columns and labels:
Experiment in all cases: ITC
[1] = target: T2, ezrin FERM domain (residues 1-297) (human, UniProt P15311 1-297)
[2] = target: T2, ezrin FERM domain (residues 1-297); remark: listed apart in the source
human RhoGDI = target: T1, human RhoGDI

T2 sequence (P15311 1-297): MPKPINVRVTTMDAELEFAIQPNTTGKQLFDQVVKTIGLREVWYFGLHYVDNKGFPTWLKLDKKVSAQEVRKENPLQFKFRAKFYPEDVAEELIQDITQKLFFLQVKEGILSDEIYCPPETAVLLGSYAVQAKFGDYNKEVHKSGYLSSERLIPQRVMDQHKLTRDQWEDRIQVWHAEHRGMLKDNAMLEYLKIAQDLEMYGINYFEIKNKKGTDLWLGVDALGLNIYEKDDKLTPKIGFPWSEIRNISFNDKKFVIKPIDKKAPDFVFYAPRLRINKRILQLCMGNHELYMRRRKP

| Binder | dH [2] [kcal/mol] | stoichiometry N [2] | further results |
| --- | --- | --- | --- |
| ezrin C-terminal fragment (residues 477-586) (domain or fragment, human, UniProt P15311 477-586, looked up) VYEPVSYHVQESLQDEGAEPTGYSAELSSEGIRDDRNEEKRITEAEKNERVQRQLLTLSSELSQARDENKRTHNDIIHNENMRQGRDKYKTLRQIRQGNTKQRIDEFEAL | – | – | Ka [1]: 1.13e+06 M⁻¹ |
| IQGAP2 Repeats (IQGAP2 residues 211-591) (domain or fragment, human, UniProt Q13576 211-591, looked up) EAALHAAVIAINEAVEKGIAEQTVVTLRNPNAVLTLVDDNLAPEYQKELWDAKKKKEENARLKNSCISEEERDAYEELLTQAEIQGNINKVNRQAAVDHINAVIPEGDPENTLLALKKPEAQLPAVYPFAAAMYQNELFNLQKQNTMNYLAHEELLIAVEMLSAVALLNQALESNDLVSVQNQLRSPAIGLNNLDKAYVERYANTLLSVKLEVLSQGQDNLSWNEIQNCIDMVNAQIQEENDRVVAVGYINEAIDEGNPLRTLETLLLPTANISDVDPAHAQHYQDVLYHAKSQKLGDSESVSKVLWLDEIQQAVDDANVDKDRAKQWVTLVVDVNQCLEGKKSSDILSVLKSSTSNANDIIPECADKYYDALVKAKELKS | -3.98 ± 0.39 | 1.33 ± 0.0688 | – |
| IQGAP1 Repeats (IQGAP1 residues 156-672), tag removed (domain or fragment, human, UniProt P46940 156-672, looked up) SLYLFKLGLAPQIQDLYGKVDFTEEEINNMKTELEKYGIQMPAFSKIGGILANELSVDEAALHAAVIAINEAIDRRIPADTFAALKNPNAMLVNLEEPLASTYQDILYQAKQDKMTNAKNRTENSERERDVYEELLTQAEIQGNINKVNTFSALANIDLALEQGDALALFRALQSPALGLRGLQQQNSDWYLKQLLSDKQQKRQSGQTDPLQKEELQSGVDAANSAAQQYQRRLAAVALINAAIQKGVAEKTVLELMNPEAQLPQVYPFAADLYQKELATLQRQSPEHNLTHPELSVAVEMLSSVALINRALESGDVNTVWKQLSSSVTGLTNIEEENCQRYLDELMKLKAQAHAENNEFITWNDIQACVDHVNLVVQEEHERILAIGLINEALDEGDAQKTLQALQIPAAKLEGVLAEVAQHYQDTLIRAKREKAQEIQDESAVLWLDEIQGGIWQSNKDTQEAQKFALGIFAINEAVESGDVGKTLSALRSPDVGLYGVIPECGETYHSDLAEAK | -49.1 ± 15.6 | 0.274 ± 0.0243 | – |
| human Cdc42C188S, GDP-bound (natural protein) not shown | – | – | Ka (human RhoGDI): 55700 ± 940 M⁻¹; dH (human RhoGDI): -13.29 ± 0.08 kcal/mol; stoichiometry N (human RhoGDI): 0.853 ± 0.0003 |
